Reference: article doi:10.1101/2023.10.23.563594 (bioRxiv, 2023)

T1: full-length unlabelled RING1B-PCGF4 catalytic dimer (human, UniProt Q99496-1;P35226)
T1 sequence 1: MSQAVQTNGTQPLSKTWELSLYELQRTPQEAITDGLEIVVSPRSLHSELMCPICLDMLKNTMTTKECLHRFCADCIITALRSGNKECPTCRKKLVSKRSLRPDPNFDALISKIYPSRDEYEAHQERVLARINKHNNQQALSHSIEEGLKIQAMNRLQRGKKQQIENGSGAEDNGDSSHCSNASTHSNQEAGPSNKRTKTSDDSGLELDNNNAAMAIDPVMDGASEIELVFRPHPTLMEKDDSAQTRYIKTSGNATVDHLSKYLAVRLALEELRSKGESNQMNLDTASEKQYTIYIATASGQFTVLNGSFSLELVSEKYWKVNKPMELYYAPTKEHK
T1 sequence 2: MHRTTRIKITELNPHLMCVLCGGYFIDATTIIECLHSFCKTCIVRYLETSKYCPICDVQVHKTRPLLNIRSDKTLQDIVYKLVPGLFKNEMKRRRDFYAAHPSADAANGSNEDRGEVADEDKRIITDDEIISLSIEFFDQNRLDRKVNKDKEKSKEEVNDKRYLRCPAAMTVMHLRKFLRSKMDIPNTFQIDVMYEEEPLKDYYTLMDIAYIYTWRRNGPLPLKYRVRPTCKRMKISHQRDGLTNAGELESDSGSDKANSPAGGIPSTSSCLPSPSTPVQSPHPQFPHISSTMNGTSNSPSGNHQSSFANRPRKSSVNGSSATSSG

B1: E3 ubiquitin ligase subunit RING1B, full-length, co-expressed in the vPRC1.4 complex (natural protein)
chain: MSQAVQTNGTQPLSKTWELSLYELQRTPQEAITDGLEIVVSPRSLHSELMCPICLDMLKNTMTTKECLHRFCADCIITALRSGNKECPTCRKKLVSKRSLRPDPNFDALISKIYPSRDEYEAHQERVLARINKHNNQQALSHSIEEGLKIQAMNRLQRGKKQQIENGSGAEDNGDSSHCSNASTHSNQEAGPSNKRTKTSDDSGLELDNNNAAMAIDPVMDGASEIELVFRPHPTLMEKDDSAQTRYIKTSGNATVDHLSKYLAVRLALEELRSKGESNQMNLDTASEKQYTIYIATASGQFTVLNGSFSLELVSEKYWKVNKPMELYYAPTKEHK
B2: RING1 and YY1-binding protein (RYBP), full-length wild type, co-expressed in the vPRC1.4 complex (natural protein)
chain: MTMGDKKSPTRPKRQAKPAADEGFWDCSVCTFRNSAEAFKCSICDVRKGTSTRKPRINSQLVAQQVAQQYATPPPPKKEKKEKVEKQDKEKPEKDKEISPSVTKKNTNKKTKPKSDILKDPPSEANSIQSANATTKTSETNHTSRPRLKNVDRSTAQQLAVTVGNVTVIITDFKEKTRSSSTSSSTVTSSAGSEQQNQSSSGSESTDKGSSRSSTPKGDMSAVNDESF
B3: Polycomb group ring-finger subunit PCGF4, full-length, co-expressed in the vPRC1.4 complex (natural protein)
chain: MHRTTRIKITELNPHLMCVLCGGYFIDATTIIECLHSFCKTCIVRYLETSKYCPICDVQVHKTRPLLNIRSDKTLQDIVYKLVPGLFKNEMKRRRDFYAAHPSADAANGSNEDRGEVADEDKRIITDDEIISLSIEFFDQNRLDRKVNKDKEKSKEEVNDKRYLRCPAAMTVMHLRKFLRSKMDIPNTFQIDVMYEEEPLKDYYTLMDIAYIYTWRRNGPLPLKYRVRPTCKRMKISHQRDGLTNAGELESDSGSDKANSPAGGIPSTSSCLPSPSTPVQSPHPQFPHISSTMNGTSNSPSGNHQSSFANRPRKSSVNGSSATSSG

Legend:
[1] = target: B2; assay: SEC-MALS
[2] = target: B1; assay: cross-linking
[3] = target: B3; assay: cross-linking
[4] = target: T1, full-length unlabelled RING1B-PCGF4 …; assay: pull-down
[5] = target: B1; assay: pull-down
[6] = target: B3; assay: pull-down
[7] = target: B1; assay: SEC-MALS

Row | stoichiometry N [1] | binding result [5] | binding result [6] | Binder | other results
1 | 1 | – | – | B1 | –
2 | – | – | – | B2 | binding result [2]: binds; binding result [3]: binds
3 | – | – | – | RYBP full-length, 15N- or 13C/15N-labelled, from E. coli (natural protein, uniform 15N or 13C/15N isotope labelling) MTMGDKKSPTRPKRQAKPAADEGFWDCSVCTFRNSAEAFKCSICDVRKGTSTRKPRINSQLVAQQVAQQYATPPPPKKEKKEKVEKQDKEKPEKDKEISPSVTKKNTNKKTKPKSDILKDPPSEANSIQSANATTKTSETNHTSRPRLKNVDRSTAQQLAVTVGNVTVIITDFKEKTRSSSTSSSTVTSSAGSEQQNQSSSGSESTDKGSSRSSTPKGDMSAVNDESF | binding result [4]: binds
4 | – | binds | binds | RYBP Q69K, co-expressed with RING1B and PCGF4 (natural protein) MTMGDKKSPTRPKRQAKPAADEGFWDCSVCTFRNSAEAFKCSICDVRKGTSTRKPRINSQLVAQQVAQKYATPPPPKKEKKEKVEKQDKEKPEKDKEISPSVTKKNTNKKTKPKSDILKDPPSEANSIQSANATTKTSETNHTSRPRLKNVDRSTAQQLAVTVGNVTVIITDFKEKTRSSSTSSSTVTSSAGSEQQNQSSSGSESTDKGSSRSSTPKGDMSAVNDESF | –
5 | – | binds | binds | RYBP A63T, co-expressed with RING1B and PCGF4 (natural protein) MTMGDKKSPTRPKRQAKPAADEGFWDCSVCTFRNSAEAFKCSICDVRKGTSTRKPRINSQLVTQQVAQQYATPPPPKKEKKEKVEKQDKEKPEKDKEISPSVTKKNTNKKTKPKSDILKDPPSEANSIQSANATTKTSETNHTSRPRLKNVDRSTAQQLAVTVGNVTVIITDFKEKTRSSSTSSSTVTSSAGSEQQNQSSSGSESTDKGSSRSSTPKGDMSAVNDESF | –
6 | 1 | – | – | B3 | stoichiometry N [7]: 1
